This passage reports ID50 results from PMC4378652 (Molecular and cellular endocrinology, 2015).

In the assay the target is T1, rat FSH receptor (rat testis homogenate) (rat (endogenous in rat testis), UniProt P20395 18-692).
T1 sequence (looked up): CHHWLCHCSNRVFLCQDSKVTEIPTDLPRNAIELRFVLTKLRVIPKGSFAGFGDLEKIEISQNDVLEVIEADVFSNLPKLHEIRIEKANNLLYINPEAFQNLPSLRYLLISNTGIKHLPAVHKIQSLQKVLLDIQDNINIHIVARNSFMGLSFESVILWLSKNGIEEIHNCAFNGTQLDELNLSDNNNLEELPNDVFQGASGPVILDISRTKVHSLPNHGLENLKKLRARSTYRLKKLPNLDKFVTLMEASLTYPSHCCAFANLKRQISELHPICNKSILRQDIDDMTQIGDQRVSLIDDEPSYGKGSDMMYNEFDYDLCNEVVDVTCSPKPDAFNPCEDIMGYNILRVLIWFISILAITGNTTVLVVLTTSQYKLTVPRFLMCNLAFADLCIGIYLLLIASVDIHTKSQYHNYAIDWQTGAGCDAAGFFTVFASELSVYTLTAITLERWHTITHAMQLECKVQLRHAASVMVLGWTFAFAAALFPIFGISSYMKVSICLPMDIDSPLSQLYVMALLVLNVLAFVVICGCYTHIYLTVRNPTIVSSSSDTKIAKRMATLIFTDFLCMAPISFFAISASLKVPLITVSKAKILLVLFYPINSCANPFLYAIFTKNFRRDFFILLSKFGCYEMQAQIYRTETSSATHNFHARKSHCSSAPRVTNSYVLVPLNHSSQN
Put plainly: radioligand binding.

B1: Pituitary hFSH^24/21 (AFP7298A) (ligand)
chain 1: not shown
chain 2: NSCELTNITIAIEKEECRFCISINTTWCAGYCYTRDLVYKDPARPKIQKTCTFKELVYETVRVPGCAHHADSLYTYPVATQCHCGKCDSDSTDCTVRGLGPSYCSFGEMKE
modifications: N-glycosylated (positions not given) | mixture of FSHβ^24 (fully glycosylated) and FSHβ^21, FSHβ^24 the more abundant
As for B1, the ID50 was found to be 114 ng.

B2: Pituitary hFSH^24 (ligand)
chain 1: not shown
chain 2: NSCELTNITIAIEKEECRFCISINTTWCAGYCYTRDLVYKDPARPKIQKTCTFKELVYETVRVPGCAHHADSLYTYPVATQCHCGKCDSDSTDCTVRGLGPSYCSFGEMKE
modifications: N-glycosylated (two N-glycans, positions not given) | fully glycosylated FSHβ^24 (N-glycans at Asn7 and Asn24)
Turning to B2, the ID50 worked out at 253 ng.
